US20090089899A1, “Method for Enhancing Drought Stress Tolerance in Plants by Active AREB1” (priority 2005, published 2009)

B1: full-length AREB1: full-length Arabidopsis thaliana AREB1 protein (SEQ ID NO: 2), expressed from full-length cDNA under 35S promoter (protein, listed as Arabidopsis thaliana)
chain: MDGSMNLGNEPPGDGGGGGGLTRQGSIYSLTFDEFQSSVGKDFGSMNMDELLKNIWSAEETQAMASGVVPVLGGGQEGLQLQRQGSLTLPRTLSQKTVDQVWKDLSKVGSSGVGGSNLSQVAQAQSQSQSQRQQTLGEVTLEEFLVRAGVVREEAQVAARAQIAENNKGGYFGNDANTGFSVEFQQPSPRVVAAGVMGNLGAETANSLQVQGSSLPLNVNGARTTYQQSQQQQPIMPKQPGFGYGTQMGQLNSPGIRGGGLVGLGDQSLTNNVGFVQGASAAIPGALGVGAVSPVTPLSSEGIGKSNGDSSSLSPSPYMFNGGVRGRKSGTVEKVVERRQRRMIKNRESAARSRARKQAYTVELEAEVAKLKEENDELQRKQARIMEMQKNQETEMRNLLQGGPKKKLRRTESGPW

What was measured:
RD29B gene = assay: RNA gel blot (Northern) analysis of downstream gene RD29B in transformed plants; type: in vivo, Arabidopsis thaliana
Method: Extraction of total RNA from plant bodies and RNA gel blot analysis using the total RNA were performed according to the method of Satoh et al (2004, Plant Cell Physiol. 45, 309-317) using a Shakemaster crusher (Bio Medical Science, Tokyo, Japan). Furthermore, probes for RNA gel blot analysis were prepared according to the method of Maruyama et al (2004, Plant J. 38, 982-993).
To prepare a pBE2113Not-AREB1 plasmid, the entire coding region of AREB1 was amplified by PCR using a primer with a Not I linker and then the resultant was introduced into pBE2113Not (Liu et al., 1998, Plant Cell 10, 1391-1406) in the sense orientation. pBE2113Not-AREB1ΔQT was prepared by amplifying the coding region of AREB1ΔQT by PCR using primers with Xba I and BamH I linkers and then introducing the resultant into the Xba I/BamH I site of pBE2113Not in the sense orientation.
To produce transformed plants with 35S-AREB1 and 35S-AREB1ΔQT, transformation vectors, pBE2113Not-AREB1 and pBE2113Not-AREB1ΔQT, were introduced into Arabidopsis thaliana (Columbia) by a suction-infiltration method (Osakabe et al., 2005, Plant Cell 17, 1105-1119) using the Agrobacterium tumefaciens C58 strain.
Here, it was examined whether or not overexpression of ABRE1ΔQT in Arabidopsis thaliana would activate the transcription of a downstream gene such as RD29B in the absence of external ABA. […]

RD29B-GUS reporter gene = assay: Transient expression (transactivation) analysis with RD29B-GUS reporter in protoplasts of Arabidopsis thaliana T87 cells; type: cell-based; conditions: in the presence of 50 μM abscisic acid (ABA)
Method: Analysis of transient expression was performed using protoplasts derived from Arabidopsis thaliana T87 cells according to a slightly modified version of the method of Fujita et al (2004, Plant J. 39, 863-876) and the method of Satoh et al (2004, Plant Cell Physiol. 45, 309-317). Protoplast isolation and gene introduction were all performed at room temperature (25° C. to 28° C.). Protoplasts in which the gene had been introduced were allowed to stand for 16 to 20 hours at 22° C. in the dark. An enzyme solution [0.4 M mannitol, 1.5% (w/v) cellulase “Onozuka” R-10 (Yakult, Tokyo, Japan), 0.3% (w/v) macerozyme R-10 (Yakult), 0.1% (w/v) bovine serum albumin, 10 mM CaCl2, 20 mM KCl, and 20 mM MES, pH 5.7] was prepared according to the method of Sheen (2002) (http://genetics.mgh.harvard.edu/sheenweb/).
A DNA fragment containing a portion or the whole of AREB1 cDNA was amplified by PCR and then the product was cloned into the Not I site of an expression vector pBI35SΩ (Abe et al., 1997, Plant Cell 9, 1859-1868). Thus, a plasmid having an AREB1 bZIP DNA binding domain was prepared. The plasmid was then used for an experiment for the analysis of transient expression. To remove a 640-base-pair fragment that was partially cleaved with EcoT14I from the pBI35SΩ-AREB1 plasmid, self-binding ligase reaction was performed after partial cleavage with EcoT14I. […]

Row | Molecule | expression of the downstream gene RD29B (Northern analysis) (RD29B gene; wild-type (WT) and vector control plants, 50 μM ABA, 7 hours) | expression of the downstream RD29B gene (Northern analysis) (RD29B gene; 2-week-old seedlings of transformed plants, in the absence of ABA) | GUS activity (RD29B-GUS reporter) (RD29B-GUS reporter gene)
1 | CC1=CC(=O)CC(C)(C)[C@@]1(O)/C=C/C(C)=C\C(=O)O [ABA, abscisic acid, reference compound] | could be confirmed only in the presence of 50 μM ABA |  | 
2 | B1 |  | not observed | significant enhancement in GUS activity
